The values below come from the RNAGym collection of RNA variant scans (doi:10.7554/elife.80360).

B1: Twister Ribozyme (parent)
chain: AACACUGCCAAUGCCGGUCCCAAGCCCGGAUAAAAGUGGAGGGGGCGG

Variants of B1 are the subject of the data set. Description: self-cleavage, relative activity (ratio to wild type); higher = more cleavage; co-transcriptional.
For AACACUGCCAAUGCCCGUCCCAAGCCCGGAUAAAAGUGGAGGGGGCAG [G16C G47A], the self-cleavage was 0.165.
Next, GACACUGCCAUUGCCGGUCCCAAGCCCGGAUAAAAGUGGAGGGGGCGG [A1G A11U]: 0.47; AACACUUCCAAUGCCGGUCCCAGGCCCGGAUAAAAGUGGAGGGGGCGG [G7U A23G]: 0.0791; AACACGGCCAAUGCCGGUCCCAAUCCCGGAUAAAAGUGGAGGGGGCGG [U6G G24U]: 0.145.
Next, AACACUGCCAAUGCCGGUCCCUAGCCCGGAUAAAAGUGGAGCGGGCGG [A22U G42C]: 0.154; AAGACAGCCAAUGCCGGUCCCAAGCCCGGAUAAAAGUGGAGGGGGCGG [C3G U6A]: 0.13; AACACUGCCAAUGCCGGUCCCAAGCCCGUAUAAACGUGGAGGGGGCGG [G29U A35C]: 0.892.
Next, AACACUGCCAAUGCCGGUCCCAAGCCCGGAUAAAAGUGGAGGGCCCGG [G44C G45C]: 0.54; AACACUGCCAAUGCCGGUUCCAAGGCCGGAUAAAAGUGGAGGGGGCGG [C19U C25G]: 0.176.
As for AACAGUGCCAAUGCCGGUCCCAAGCCCGGAUAAAAGUGGAGGGCGCGG [C5G G44C], the self-cleavage came out at 0.678.
The same measure for AAGAGUGCCAAUGCCGGUCCCAAGCCCGGAUAAAAGUGGAGGGGGCGG [C3G C5G]: 0.101; for AACACUGCCAAUGACGGUCCCAAGCCCGGAUAAAAGUGGAGGAGGCGG [C14A G43A]: 0.309; for AACACUGCCAAUGCCGGUCCCAAGUCCGGAUAAAAGUGGAGGGGGCGC [C25U G48C]: 0.881.
The same measure for AACACUGCCAAUGCCAGUCCCAAGCCCGGAUAAACGUGGAGGGGGCGG [G16A A35C]: 0.927; for AGCACUGCCAAUGCCGGUCCCAAGCCCGGCUAAAAGUGGAGGGGGCGG [A2G A30C]: 0.23.
Next, AACACUGCCAAUGCCGGUCCCAAGCCAGGAUAAAAGCGGAGGGGGCGG [C27A U37C]: 0.136; AACACUGCCAAUGCCGGUCACAAGCCCGGAUAAAAGUCGAGGGGGCGG [C20A G38C]: 0.0639.
With CACACUGCCAAUGCCGGUCCCAAGCCCGGAUAAGAGUGGAGGGGGCGG [A1C A34G], the self-cleavage was determined as 0.19.
The same measure for AACACUGCCAAUGCCGGUCCCAAGCCCGGAUAGAAGUGGAGGGGGCAG [A33G G47A]: 0.75; for AUCACUGCCAAUGCCGAUCCCAAGCCCGGAUAAAAGUGGAGGGGGCGG [A2U G17A]: 0.131; for AAAACUGCCAAUACCGGUCCCAAGCCCGGAUAAAAGUGGAGGGGGCGG [C3A G13A]: 0.207.
Turning to AACACUGCCAGUGCCGGUACCAAGCCCGGAUAAAAGUGGAGGGGGCGG [A11G C19A], the self-cleavage is 0.221.
For AACACUGCCAAUGCCGGUUCCAAGCCCGGAUAAAAGUCGAGGGGGCGG [C19U G38C], the self-cleavage was 0.782.
Next, AACACUGCCAAUGCCGGUCCCAAGCCGGGAUAAAAGUGGGGGGGGCGG [C27G A40G]: 0.062; AACACGGCCAAUGCCGGUCCCAAGCCCGGCUAAAAGUGGAGGGGGCGG [U6G A30C]: 0.246.
Turning to AACACUGCAAAUGCCGGUCCUAAGCCCGGAUAAAAGUGGAGGGGGCGG [C9A C21U], the self-cleavage came to 0.0545.
Turning to AACACUGCCAAUGCCGGUCGCAAGCCCAGAUAAAAGUGGAGGGGGCGG [C20G G28A], the self-cleavage is 0.141.
Next, AACACUGCCAAUGCCGGUCCCAAGCCCGGAUAAGAGUGGAGGGGUCGG [A34G G45U]: 0.553; AACACUGCCAAUGCCGGUCCCAAGGCCGGAUAAAAGUGGAGGCGGCGG [C25G G43C]: 0.124; AACACUGCCAAUGCCGGUCCCAAGCCCGGAUAAAAGUGCUGGGGGCGG [G39C A40U]: 0.165.
Next, AACACUGCCAAUGCCGGUCCCGAGCCCGGAUAAAAGUGGAGGGGGGGG [A22G C46G]: 0.328; AACACUGCCAAUGCCGGUCCCAAGCCCGGAAAAAAGUGGAGGGGACGG [U31A G45A]: 0.727; AACCCUGCAAAUGCCGGUCCCAAGCCCGGAUAAAAGUGGAGGGGGCGG [A4C C9A]: 0.114.
The same measure for AAUACUGCCAAUGCCGGUCCCAAGCCCGGAUAAAAGUGGAGGGGGCUG [C3U G47U]: 0.513.
Turning to AACACUGCCGAUGCCGGUCCCAAGCCCGGAUAAAAGUGGAGGGGGCGC [A10G G48C], the self-cleavage came to 1.2.
The same measure for AACACUCCCAAUGCCGGUCCCAAGCCCGGGUAAAAGUGGAGGGGGCGG [G7C A30G]: 0.0729.
Next, GACACUGCCAAUGCCGGUCCCAAGCCCGGAUAGAAGUGGAGGGGGCGG [A1G A33G]: 0.499; AACGCUGCCAAUGCCGGUCCCAAGCCCGGAUAAAAGUGGAGGCGGCGG [A4G G43C]: 0.168; AACACUGCCCAUGCCGGUUCCAAGCCCGGAUAAAAGUGGAGGGGGCGG [A10C C19U]: 0.802.
Next, AACACUGUCAAUGCCGGUCCCAAGCCCGGAUAAAAGUGGAGGGGGCGU [C8U G48U]: 0.678.
For the variant AACACUGCCAAUGCCGGUCCCUAGGCCGGAUAAAAGUGGAGGGGGCGG [A22U C25G], the self-cleavage is 0.115.
On to AACACUGCCAAUGCCGGUCCCAAGCCUGGAUAAAAGUGUAGGGGGCGG [C27U G39U], for which the self-cleavage came out at 0.168.
Next, AACACUGCCAAUGCCGGUCCCACGGCCGGAUAAAAGUGGAGGGGGCGG [A23C C25G]: 0.0881; AACACUGCCAAUGCCGGUCCCAAGCCCGGAUAAAAGGGCAGGGGGCGG [U37G G39C]: 0.143; AACACUGUCAAGGCCGGUCCCAAGCCCGGAUAAAAGUGGAGGGGGCGG [C8U U12G]: 0.429.
Next, AACACUGCCAAUGCCGGUCCCACGCCCGGAUAAAAGCGGAGGGGGCGG [A23C U37C]: 0.0915; AACACUGCCAAUGCGGGUCCCGAGCCCGGAUAAAAGUGGAGGGGGCGG [C15G A22G]: 0.0636; AACACUGCAAAUGCCGGUCCCAAGCCCGGAUAAAAGUGGCGGGGGCGG [C9A A40C]: 0.108.
As for AACUCUGCCAAUGCCUGUCCCAAGCCCGGAUAAAAGUGGAGGGGGCGG [A4U G16U], the self-cleavage was determined as 0.0436.
Next, AACACUGCCGAUGCCGGUCCCAAGCCCGGAUCAAAGUGGAGGGGGCGG [A10G A32C]: 1.02.
Next, AACACUGCCAAUGCCGGUCCCAAGCCCGGAUAUAAGUGGAGGGGACGG [A33U G45A]: 0.884; AACACUGCCAGUGCCGGUCCCAAGGCCGGAUAAAAGUGGAGGGGGCGG [A11G C25G]: 0.437.
Regarding AACACUGCCAAUGCCGGUCCCAAGCCCGGAUAAAUGUGGAGGGGCCGG [A35U G45C], the self-cleavage was 0.723.
The same measure for AACACUGCGAAUGCCGGUCCCAAGCCCGGAUAAAAGUGGAGGGAGCGG [C9G G44A]: 0.731.
